Four molecules from article PMC9482650, “Quantitative fragmentomics allow affinity mapping of interactomes” (Nature Communications, 2022) can be followed below.

Common to all, as to experiment: holdup assay
Common to all, as to parameters: key: below the threshold = too weak to quantify, mostly under pKd 3.1 to 4

Assay [1] has as its target T1, CARD11, Q9BXL7.
T1 sequence (Q9BXL7 662-765, limits assumed, looked up): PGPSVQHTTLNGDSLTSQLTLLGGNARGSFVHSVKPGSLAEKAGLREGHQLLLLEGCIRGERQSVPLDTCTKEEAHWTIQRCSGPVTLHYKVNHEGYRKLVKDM

Assay [2] concerns the target T2, DFNB31_1, Q9P202.
T2 sequence (Q9P202 135-233, limits assumed, looked up): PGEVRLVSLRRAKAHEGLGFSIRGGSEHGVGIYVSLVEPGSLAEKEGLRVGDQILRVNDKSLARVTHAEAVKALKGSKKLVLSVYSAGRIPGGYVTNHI

Assay [3] concerns the target T3, DFNB31_2, Q9P202.
T3 sequence (Q9P202 274-371, limits assumed, looked up): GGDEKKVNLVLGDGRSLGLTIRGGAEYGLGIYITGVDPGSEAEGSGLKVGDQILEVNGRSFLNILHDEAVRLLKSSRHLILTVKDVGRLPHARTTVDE

Assay [4] addresses DLG1_1, Q12959.
For assay [5], the target named is T4, DLG3_1, Q92796.
T4 sequence (Q92796 125-227, limits assumed, looked up): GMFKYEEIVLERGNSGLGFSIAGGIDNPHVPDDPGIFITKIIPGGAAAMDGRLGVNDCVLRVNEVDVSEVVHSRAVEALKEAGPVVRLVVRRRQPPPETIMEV

Assay [6] deals with DLG5_1, Q8TDM6.
Assay [7] concerns the target FRMPD2_1, Q68DX3.
In assay [8] the target is T5, GRIP1_4, Q9Y3R0.
T5 sequence (Q9Y3R0 467-571, limits assumed, looked up): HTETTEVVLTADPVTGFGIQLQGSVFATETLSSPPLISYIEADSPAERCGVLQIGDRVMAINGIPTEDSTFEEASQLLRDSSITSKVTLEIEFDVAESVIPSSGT

For assay [9], the target named is GRIP2_4, Q9C0E4.
The target in assay [10] is IL16_3, Q14005.
In assay [11] the target is Inadl_3, Q8NI35.
Assay [12] deals with Inadl_8, Q8NI35.
The target of assay [13] is LIMK2, P53671.
For assay [14], the target named is T6, LNX2_2, Q8N448.
T6 sequence (Q8N448 334-432, limits assumed, looked up): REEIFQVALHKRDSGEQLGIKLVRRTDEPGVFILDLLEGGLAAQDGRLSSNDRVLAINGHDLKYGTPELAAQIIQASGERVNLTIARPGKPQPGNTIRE

Assay [15] deals with MAGI1_1, Q96QZ7.
Assay [16] deals with MAGI2_4, Q86UL8.
Assay [17] deals with T7, MPDZ_10, O75970.
T7 sequence (O75970 1624-1722, limits assumed, looked up): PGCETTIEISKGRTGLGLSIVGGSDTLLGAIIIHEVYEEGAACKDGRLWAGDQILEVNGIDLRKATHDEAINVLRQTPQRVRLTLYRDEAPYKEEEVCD

Assay [18] deals with T8, MPDZ_12, O75970.
T8 sequence (O75970 1857-1958, limits assumed, looked up): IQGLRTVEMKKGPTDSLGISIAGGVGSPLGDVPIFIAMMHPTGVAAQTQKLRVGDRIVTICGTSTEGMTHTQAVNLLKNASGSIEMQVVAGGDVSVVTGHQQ

In assay [19] the target is NHERF4_1, Q86UT5-2.
For assay [20], the target named is T9, PDZD2_2, O15018.
T9 sequence (O15018 329-429, limits assumed, looked up): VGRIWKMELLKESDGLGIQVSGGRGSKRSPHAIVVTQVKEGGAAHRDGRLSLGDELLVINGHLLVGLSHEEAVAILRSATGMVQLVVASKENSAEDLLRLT

For assay [21], the target named is T10, RADIL, Q96JH8.
T10 sequence (Q96JH8 971-1071, limits assumed, looked up): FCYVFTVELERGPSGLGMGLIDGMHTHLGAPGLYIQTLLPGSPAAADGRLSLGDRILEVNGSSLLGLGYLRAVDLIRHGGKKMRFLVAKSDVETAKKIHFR

Assay [22] addresses SCRIB_3, Q14160.
The target in assay [23] is T11, SNTG2, Q9NY99.
T11 sequence (Q9NY99 68-166, limits assumed, looked up): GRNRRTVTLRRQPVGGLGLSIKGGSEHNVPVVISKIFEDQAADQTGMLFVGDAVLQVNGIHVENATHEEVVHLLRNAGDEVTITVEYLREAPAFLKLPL

Assay [24] has as its target T12, TX1BP3, O14907.
T12 sequence (O14907 10-122, limits assumed, looked up): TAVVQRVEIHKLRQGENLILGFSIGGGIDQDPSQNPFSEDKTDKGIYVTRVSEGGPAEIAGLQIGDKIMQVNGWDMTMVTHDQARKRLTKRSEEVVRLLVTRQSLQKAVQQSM

[25] abbreviates: plain residues with an end cap or a label only (N-terminal biotin on a linker: ttds).
The mark [26] stands for this setting: plain residues with an end cap or a label only (N-terminal biotin on a linker: ahx).

Chain of DLG5_1, Q8TDM6 (Q8TDM6 617-713): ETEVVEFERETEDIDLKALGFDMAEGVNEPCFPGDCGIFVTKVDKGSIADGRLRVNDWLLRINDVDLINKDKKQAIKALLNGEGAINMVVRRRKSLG
Chain of LIMK2, P53671 (P53671 143-248): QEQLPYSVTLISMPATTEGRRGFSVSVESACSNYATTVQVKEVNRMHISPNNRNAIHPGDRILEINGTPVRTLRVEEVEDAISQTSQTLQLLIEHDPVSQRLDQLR
Chain of MAGI2_4, Q86UL8 (Q86UL8 772-865): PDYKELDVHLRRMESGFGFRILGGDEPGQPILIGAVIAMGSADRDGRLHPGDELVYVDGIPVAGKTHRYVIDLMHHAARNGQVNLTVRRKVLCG
Chain of NHERF4_1, Q86UT5-2 (Q86UT5 other isoform, or with tags, fused parts or gaps): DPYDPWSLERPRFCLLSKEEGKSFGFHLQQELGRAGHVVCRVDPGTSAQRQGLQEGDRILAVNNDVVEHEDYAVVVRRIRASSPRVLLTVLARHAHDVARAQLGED
Chain of SCRIB_3, Q14160 (Q14160 999-1103): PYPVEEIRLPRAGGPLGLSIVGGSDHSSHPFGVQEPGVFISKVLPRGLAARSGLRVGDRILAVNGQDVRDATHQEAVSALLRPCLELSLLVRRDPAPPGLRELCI
Chain of Inadl_8, Q8NI35 (Q8NI35 1425-1530): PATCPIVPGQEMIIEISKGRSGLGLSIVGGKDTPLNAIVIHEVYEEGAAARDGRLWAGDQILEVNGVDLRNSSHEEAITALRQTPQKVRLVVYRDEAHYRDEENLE
Chain of GRIP2_4, Q9C0E4 (Q9C0E4 446-548): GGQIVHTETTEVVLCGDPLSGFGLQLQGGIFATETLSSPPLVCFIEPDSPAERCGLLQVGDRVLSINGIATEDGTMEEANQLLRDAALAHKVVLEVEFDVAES
Chain of MAGI1_1, Q96QZ7 (Q96QZ7 1-106): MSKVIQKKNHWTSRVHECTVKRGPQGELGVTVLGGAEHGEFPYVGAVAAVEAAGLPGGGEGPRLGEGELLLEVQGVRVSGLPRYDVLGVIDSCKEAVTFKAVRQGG
Chain of IL16_3, Q14005 (Q14005 1107-1207): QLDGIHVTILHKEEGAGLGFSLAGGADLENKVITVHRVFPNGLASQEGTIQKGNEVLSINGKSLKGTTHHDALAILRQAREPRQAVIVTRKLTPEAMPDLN
Chain of FRMPD2_1, Q68DX3 (Q68DX3 770-861): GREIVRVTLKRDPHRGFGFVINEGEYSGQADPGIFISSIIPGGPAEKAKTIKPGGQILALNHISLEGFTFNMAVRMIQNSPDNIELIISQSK
Chain of Inadl_3, Q8NI35 (Q8NI35 359-469): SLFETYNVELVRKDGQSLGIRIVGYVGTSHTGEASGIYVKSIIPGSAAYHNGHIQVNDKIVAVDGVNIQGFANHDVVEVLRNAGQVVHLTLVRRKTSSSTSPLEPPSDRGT

What is called pKd is the negative decadic logarithm of the Kd, by convention in mol/L. With QRPYRRESEI [KCNJ12, Q14500], the pKd result is “below the threshold” in assay [1] (setting [25]); 4.02 in assay [2] (setting [25]); “below the threshold” in [3] (setting [25]); 4.04 in assay [4] (setting [25]); “below the threshold” in assay [5] (setting [25]); “below the threshold” in [6] (setting [25]). For the same molecule, the negative logarithm of the Kd (pKd) result in assay [7] (setting [25]), in [8] (setting [25]), in assay [9] (setting [25]), in assay [10] (setting [25]), in [11] (setting [25]) and in assay [12] (setting [25]) was “below the threshold” in each case. For the same molecule, the negative logarithm of the Kd (pKd) entry in assay [13] (setting [25]), in assay [14] (setting [25]), in [15] (setting [25]), in [16] (setting [25]), in [17] (setting [25]) and in [18] (setting [25]) was “below the threshold” throughout. Besides, the pKd result in assay [19] (setting [25]) is “below the threshold”; in assay [20] (setting [25]) it was 4.26; in assay [21] (setting [25]) it was “below the threshold”; in assay [22] (setting [25]), 4.76; in assay [23] (setting [25]), 3.63; in assay [24] (setting [25]) it was 4.64.
Consider NPDALPETLV [ARHGAP6, O43182], for which the pKd result is “below the threshold” in assay [1] (setting [25]); 4.1 in assay [2] (setting [25]); “below the threshold” in assay [3] (setting [25]); 4.39 in assay [4] (setting [25]); “below the threshold” in assay [5] (setting [25]); “below the threshold” in assay [6] (setting [25]). Besides, the pKd entry was “below the threshold” in assay [7] (setting [25]); “below the threshold” in assay [8] (setting [25]); “below the threshold” in [9] (setting [25]); “below the threshold” in [10] (setting [25]); 4.36 in assay [11] (setting [25]); “below the threshold” in assay [12] (setting [25]). Further, the pKd result in [13] (setting [25]) is “below the threshold”; in assay [14] (setting [25]) it was 4.66; in [15] (setting [25]), “below the threshold”; in assay [16] (setting [25]) it was 4.42; in assay [17] (setting [25]), “below the threshold”; in assay [18] (setting [25]), “below the threshold”. The negative-log Kd (pKd) in [19] (setting [25]) was 3.6; in [20] (setting [25]), 4.12; in [21] (setting [25]) it was 4.08; in assay [22] (setting [25]), 3.99; in [23] (setting [25]), 4.95; in assay [24] (setting [25]), “below the threshold”.
For the molecule GRLLGLETNV [ARHGEF26, Q96DR7], the pKd result is “below the threshold” in [1] (setting [25]); 3.91 in assay [2] (setting [25]); “below the threshold” in assay [3] (setting [25]); 4.76 in [4] (setting [25]); 4.13 in assay [5] (setting [25]); “below the threshold” in assay [6] (setting [25]). In addition, the pKd result in [7] (setting [25]) was “below the threshold”; in assay [8] (setting [25]) it was “below the threshold”; in assay [9] (setting [25]), “below the threshold”; in assay [10] (setting [25]), “below the threshold”; in [11] (setting [25]), 3.58; in [12] (setting [25]), “below the threshold”. Besides, the negative logarithm of the Kd (pKd) entry in [13] (setting [25]) is “below the threshold”; in assay [14] (setting [25]), 4.13; in [15] (setting [25]), “below the threshold”; in assay [16] (setting [25]) it was 4.02; in assay [17] (setting [25]) it was “below the threshold”; in assay [18] (setting [25]), “below the threshold”. The pKd entry in assay [19] (setting [25]) was “below the threshold”; in [20] (setting [25]), 4.12; in assay [21] (setting [25]), “below the threshold”; in assay [22] (setting [25]), 4.67; in assay [23] (setting [25]), 4.55; in assay [24] (setting [25]), 4.49.
On to AKPQPVDSWV [ARVCF, O00192], for which the negative-log Kd (pKd) entry in assay [1] (setting [26]) is “below the threshold”; in [2] (setting [26]), 4.28; in assay [3] (setting [26]), “below the threshold”; in assay [4] (setting [26]), 4.29; in assay [5] (setting [26]) it was 4.09; in assay [6] (setting [26]), “below the threshold”. The pKd entry in assay [7] (setting [26]) was “below the threshold”; in [8] (setting [26]), “below the threshold”; in assay [9] (setting [26]), “below the threshold”; in assay [10] (setting [26]) it was “below the threshold”; in [11] (setting [26]), 3.86; in assay [12] (setting [26]) it was 3.87. Also, the negative logarithm of the Kd (pKd) result in assay [13] (setting [26]) is “below the threshold”; in assay [14] (setting [26]), 4.44; in assay [15] (setting [26]) it was “below the threshold”; in assay [16] (setting [26]) it was 4.12; in [17] (setting [26]) it was “below the threshold”; in assay [18] (setting [26]), 4.4. The pKd result in [19] (setting [26]) is “below the threshold”; in [20] (setting [26]), 5.95; in assay [21] (setting [26]), 4.46; in assay [22] (setting [26]), 3.95; in assay [23] (setting [26]), “below the threshold”; in [24] (setting [26]), 4.92.
